Blank lines part the entries; values can stand above or below the binder they belong to.
Tests used:
[1] = biological target: T1, MISIIR-Fc ECD fusion protein (human, UniProt Q16671 18-149); experiment: SPR (BIAcore 1000), MISIIR-Fc ECD on CM5 chip (600 RU), serially diluted scFv
T1 construct: extracellular domain; Two orientations were made (ECD 5' or 3' of Fc); The secretion signal from the vector is not part of the secreted protein; also called MISIIR-Fc fusion protein; MISIIR ECD; not shown: tobacco etch virus cleavage site between MISIIR and Fc; human IgG1 Fc domain; C-terminal c-myc tag and 6xHis tag from the pSecTag2/Hygro vector
Protocol: (§1) Surface plasmon resonance (SPR) technology was used to determine the binding of the anti-MISIIR molecules to MISIIR ECD. The SPR response reflects a change in the mass concentration as molecules bind or dissociate from an antigen immobilized on a sensor chip. These studies were performed on a BIAcore 1000 instrument. The MISIIR-Fc ECD fusion protein target antigen was coated on a CM5 chip at a concentration of 5,000 resonance units (RU). The anti-MISIIR antibody molecules were then flowed over the chip and the difference in the response units (RU) between the start point and the end was determined. A negative control protein (Fc) was coated on a chip at 4,800 RU and was used to rule out binding to the Fc portion of the MISIIR-Fc fusion protein. The association and dissociation rates, and the affinity of each molecule for MISIIR ECD were determined by passing serially diluted samples over an MISIIR-Fc ECD coated chip with a lower concentration of target antigen (600 RU) as per the BIAcore manufacturer's instructions. The evaluation of the data was done using BIAEvaluation 3.0 software.

[2] = biological target: T1, MISIIR-Fc ECD fusion protein; experiment: assay not named in the sentence (ELISA / SPR of Example 1)
[3] = biological target: T1, MISIIR-Fc ECD fusion protein; experiment: SPR (BIAcore 1000), chip coated with MISIIR (MISIIR-Fc ECD fusion protein), scFv-Fc flowed over; analyte concentration not given; time unit not given
Protocol: as §1

[4] = biological target: T2, MISIIR expressed on IGROV-1 cells (UniProt Q16671 18-573, limits assumed); experiment: flow cytometry (FACS) on IGROV-1 cells, detection with fluorescein-conjugated goat anti-human IgG; concentration not given
T2 construct: whole, on cells; also called MIS type II receptor
T2 sequence (looked up): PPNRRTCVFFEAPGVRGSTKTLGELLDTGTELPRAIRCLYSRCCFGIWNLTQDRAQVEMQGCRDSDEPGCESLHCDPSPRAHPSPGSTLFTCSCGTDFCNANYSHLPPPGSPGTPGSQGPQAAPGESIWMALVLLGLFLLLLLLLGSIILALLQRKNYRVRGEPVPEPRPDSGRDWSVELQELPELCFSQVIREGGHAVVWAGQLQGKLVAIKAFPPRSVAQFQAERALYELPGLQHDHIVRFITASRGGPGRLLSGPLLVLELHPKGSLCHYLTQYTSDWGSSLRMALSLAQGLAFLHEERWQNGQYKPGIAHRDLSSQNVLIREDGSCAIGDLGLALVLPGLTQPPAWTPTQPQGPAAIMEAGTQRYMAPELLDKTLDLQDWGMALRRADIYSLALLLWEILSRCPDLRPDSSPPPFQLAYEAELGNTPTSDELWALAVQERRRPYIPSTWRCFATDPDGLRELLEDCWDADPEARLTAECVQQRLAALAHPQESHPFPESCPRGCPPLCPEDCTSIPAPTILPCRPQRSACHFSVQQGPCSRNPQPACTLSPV
Protocol: The binding of the antibodies was also tested in a standard fluorescence-activated cell sorter (FACS) assay.

B1: anti-MISIIR scFv of clone #17 (scFv)
scFv: MAQVTLKESGPTLVKPTQTLTLTCTFSGFSLTTSGVGVGWIRQAPGKAPEWLALIDWDDDKYYSTSLKTRLTISKDTSKNQVVLTMTNMDPVDTATYYCARDSYYGSGSHFDFWGQGTLVTVSSGGGGSGGGGSGGGGSSYELTQPPSVSVSPGQTATITCSGHDLRNKYAHWYQQKPGQSPVLVVYQDAKRPSGIPERFSGSNSGNTATLTISGTQAMDEADYYCQTWDRSTVVFGGGTKLTVLGQPKAAPSAA
notes: Expressed from pCYN (pUC119mychis) in E. coli and purified by IMAC; It carries C-terminal myc and His tags
Kd [1]: 90 nM

B2: GY4 scFv antibody molecule (scFv)
scFv: MAQITLKESGPTLVKPTQTLTLTCTVSGFSLSNARMGVSWIRQPPGKALEWLALIYRDNDKRYNPSLKSRLTITKDTSKNQVVLTMSNMDPVDTATYYCAHSLVVPAANPFDYWGQGTLVTVSSSASGAELGGGGSGGGGSGGGGSTSQAVLTQPSSLSASPGASASLTCTLRSGINVGTYRIYWYQQKPGSPPQYLLRYKSDSDKQKGSGVPSRFSGSKDASANAGILLISGLQSEDEADYYCMIWHTSAYVFGTGTKVTVLGSS
binding result [2]: binds

B3: anti-MISIIR scFv of clone #7 (scFv)
scFv: MAQVQLVQSGTEVKRPGASVKISCRATGYTFSDYGISWMRQAPGQGLEWMGWISAYNGNTNYAQKLQGRVTMTTDTSTSTAYMELRSLRYDDTAVYYCARDGRRGSGIYWGVYYYNGMDVWGQGTTVTVSSGGGGSGGGGSGGGGSQPVLTQPPSASGTPGQRVTISCSGSRSNIGRNTVNWYQQVPGMAPKLLIYSNNQRPSGVPDRFSGSKSGTSASLAISGLQSEDEADYYCAAWDDSLNGVVFGGGTKLTVLGQPKAAP
notes: Expressed from pCYN (pUC119mychis) with myc and His tags
Kd [1]: 300 nM

Continued, values first:

binding result [2]: binds
B4: scFv antibody molecule of clone #29 (scFv)
scFv: MAQVQLVQSGGGLVQPGGSLRLSCAASGFTVSSNYMSWVRQAPGKGLEWVSAISGSGGSTYYADSVKGRFTISRDNSKNTLYLQMNSLRAEDTAVYYCATRPSRGSSGWYGGDYWGQGTLVTVSSGGGGSGGGGSGGGGSSYELTQPPSTSGTPGQRVTISCSGSTSNIATNNVNWYQFLPGTAPKLLMYRNDQRPAGVPDRFSGSKSGTSASLAISGLQPEDEADYYCAAWDDSLGGEVFGTGTKVNVLGQPKAAPSAA

binding result [2]: binds
B5: M9 scFv antibody molecule (scFv)
scFv: MAQVQLVQSGAEVKKPGASVKVSCKASGYTFTSYDINWVRQATGQGLEWMGWMNPNSGNTGYAQKFQGRVTMTRNTSTNTAYMELTSLTSEDTAVYYCARGSPSPMNVWGQGTTVTVSSGGGGSGGGGSGGGGSQPVLTQPHSVSESPGKTVTISCTRSSGSIANDYVQWFQQRPGSAPTIVIYEDYRRPSGVPDRFSGSIDSSSNSASLTISGLKTEDEADYYCQSYDSSNPYVVFGGGTKLTVLGQPKAAPSAAA

binding result [3]: binds | binding result [4]: binds
B6: scFv-Fc of clone #7 (Fc fusion)
scFv: QVQLVQSGTEVKRPGASVKISCRATGYTFSDYGISWMRQAPGQGLEWMGWISAYNGNTNYAQKLQGRVTMTTDTSTSTAYMELRSLRYDDTAVYYCARDGRRGSGIYWGVYYYNGMDVWGQGTTVTVSSGGGGSGGGGSGGGGSQPVLTQPPSASGTPGQRVTISCSGSRSNIGRNTVNWYQQVPGMAPKLLIYSNNQRPSGVPDRFSGSKSGTSASLAISGLQSEDEADYYCAAWDDSLNGVVFGGGTKLTVL
notes: Bivalent fusion secreted from mammalian cells; The F105 VH / pelB leader is not part of the secreted protein; Copies '2' follows from 'bivalent'; also called sFv-IgG fusion protein; not shown: Human IgG1 hinge-CH2-CH3 of the hinge stuffer vector, and the junction to it

— patent US20060188440A1 (FOX CHASE CANCER CENTER, published 2006)
